Measured values taken from patent US11433099B2, “Immunotherapy with B*08 restricted peptides and combination of peptides against cancers and related methods” (Immatics Biotechnologies GmbH, priority 2018, dated 2022).

Assays:
[1] = system: CD8+ T cells of healthy HLA-B*08 donors; assay: In vitro T-cell priming assay with aAPCs loaded with peptide/MHC complexes and anti-CD28 antibody, pMHC multimer readout; type: cell-based, human; conditions: in vitro immunogenicity, HLA class I peptides, Table 10B
Text: In order to obtain information regarding the immunogenicity of the TUMAPs of the present invention, the inventors performed investigations using an in vitro T-cell priming assay based on repeated stimulations of CD8+ T cells with artificial antigen presenting cells (aAPCs) loaded with peptide/MHC complexes and anti-CD28 antibody.
In order to perform in vitro stimulations by artificial antigen presenting cells loaded with peptide-MHC complex (pMHC) and anti-CD28 antibody, the inventors first isolated CD8+ T cells from fresh HLA-B*08 leukapheresis products via positive selection using CD8 microbeads (Miltenyi Biotec, Bergisch-Gladbach, Germany) of healthy donors obtained from the University clinics Mannheim, Germany, after informed consent.
PBMCs and isolated CD8+ lymphocytes were incubated in T-cell medium (TCM) until use consisting of RPMI-Glutamax (Invitrogen, Karlsruhe, Germany) supplemented with 10% heat inactivated human AB serum (PAN-Biotech, Aidenbach, Germany), 100 U/ml Penicillin/100 μg/ml Streptomycin (Cambrex, Cologne, Germany), 1 mM sodium pyruvate (CC Pro, Oberdorla, Germany), 20 μg/ml Gentamycin (Cambrex). 2.5 ng/ml IL-7 (PromoCell, Heidelberg, Germany) and 10 U/ml IL-2 (Novartis Pharma, Nornberg, Germany) were also added to the TCM at this step.
Generation of pMHC/anti-CD28 coated beads, T-cell stimulations and readout was performed in a highly defined in vitro system using four different pMHC molecules per stimulation condition and 8 different pMHC molecules per readout condition.
The purified co-stimulatory mouse IgG2a anti human CD28 Ab 9.3 (Jung et al., 1987) was chemically biotinylated using Sulfo-N-hydroxysuccinimidobiotin as recommended by the manufacturer (Perbio, Bonn, Germany). Beads used were 5.6 μm diameter streptavidin coated polystyrene particles (Bangs Laboratories, Illinois, USA).
800.000 beads/200 μl were coated in 96-well plates in the presence of 4×12.5 ng different biotin-pMHC, washed and 600 ng biotin anti-CD28 were added subsequently in a volume of 200 μl. Stimulations were initiated in 96-well plates by co-incubating 1×10^6 CD8+ T cells with 2×10^5 washed coated beads in 200 μl TCM supplemented with 5 ng/ml IL-12 (PromoCell) for 3 days at 37° C. Half of the medium was then exchanged by fresh TCM supplemented with 80 U/ml IL-2 and incubating was continued for 4 days at 37° C. This stimulation cycle was performed for a total of three times. For the pMHC multimer readout using 8 different pMHC molecules per condition, a two-dimensional combinatorial coding approach was used as previously described (Andersen et al., 2012) with minor modifications encompassing coupling to 5 different fluorochromes. Finally, multimeric analyses were performed by staining the cells with Live/dead near IR dye (Invitrogen, Karlsruhe, Germany), CD8-FITC antibody clone SK1 (BD, Heidelberg, Germany) and fluorescent pMHC multimers. For analysis, a BD LSRII SORP cytometer equipped with appropriate lasers and filters was used. Peptide specific cells were calculated as percentage of total CD8+ cells. Evaluation of multimeric analysis was done using the FlowJo software (Tree Star, Oregon, USA). In vitro priming of specific multimer+CD8+ lymphocytes was detected by comparing to negative control stimulations.

HLA-B*08:01 = HLA-B*08:01 (Homo sapiens, UniProt P01889); assay: MHC binding assay (UV-ligand exchange, beta2m ELISA); conditions: MHC class I binding score; binding to HLA-B*08:01 ranged by peptide exchange yield (UV-ligand exchange, β2m ELISA)
Summary of the method: (§1)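 Peptide–HLA complexes generated by UV-ligand exchange of a UV-cleavable peptide for the test peptide; exchange yield read by β2m ELISA on streptavidin capture (samples diluted 100-fold, 1 h 37 °C), HRP anti-β2m, TMB, A450. Quantified against refolded HLA-A*02:01/MLA-001 monomer standards (15-500 ng/ml).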

HLA-B*44:05 = HLA-B*44:05 (Homo sapiens, UniProt P01889, A223V/A65T/A93T/A95T/D201E/D98Y/E176V/E187L/E204Q/E69K/G107R/H137Y/K202T/L105A/L119I/N104T/N87E/Q56L/Q94N/R106L/R155S/R180D/S101N/S121R/S35A/S48T/T118I/V36M/W191S/Y91S); assay: as above; conditions: Table 11B, peptide exchange yield
Summary of the method: as §1

HLA-A*02:01 = HLA-A*02:01 (Homo sapiens, UniProt P04439, D140Y/D185E/D98H/E176V/E277Q/G131W/G231S/I119V/I121R/I166T/I218V/L300P/L318F/N151K/N90K/P208A/P217A/Q86G/Q94H/R138H/R169H/T345S); assay: as above; conditions: Table 11C, peptide exchange yield
Summary of the method: as §1

Row | Substance | Peptide exchange (HLA-B*08:01) | Peptide exchange (HLA-B*44:05) | Peptide exchange (HLA-A*02:01) | Wells positive [%] [1]
1 | 18 (LSLVRKAL; listed as Homo sapiens) [compound 18] | +++ (50% = +++) |  |  | ++ (20%-49% = ++)
2 | 19 (FTLLRRLSL; listed as Homo sapiens) [compound 19] | +++ (50% = +++) |  |  | ++++ (>=70% = ++++)
3 | 20 (ILKRFLAC; listed as Homo sapiens) [compound 20] | +++ (50% = +++) |  |  | + (<20% = +)
4 | 21 (RILKRFLAC; listed as Homo sapiens) [compound 21] | +++ (50% = +++) |  |  | + (<20% = +)
5 | 22 (EVRLKPIL; listed as Homo sapiens) [compound 22] | ++ (20% = ++) |  |  | + (<20% = +)
6 | 25 (HLHPKGREL; listed as Homo sapiens) [compound 25] | ++ (20% = ++) |  |  | ++ (20%-49% = ++)
7 | 29 (ELFLHPVL; listed as Homo sapiens) [compound 29] | ++ (20% = ++) |  |  | ++ (20%-49% = ++)
8 | 31 (SPRVKWTF; listed as Homo sapiens) [compound 31] | ++ (20% = ++) |  |  | ++++ (>=70% = ++++)
9 | 33 (WIGLRNLDL; listed as Homo sapiens) [compound 33] | +++ (50% = +++) |  |  | + (<20% = +)
10 | 34 (IYRKKYIL; listed as Homo sapiens) [compound 34] | ++ (20% = ++) |  |  | + (<20% = +)
11 | 35 (ELFQRPVL; listed as Homo sapiens) [compound 35] | ++ (20% = ++) |  |  | + (<20% = +)
12 | 36 (IVKIKVQEL; listed as Homo sapiens) [compound 36] | ++ (20% = ++) |  |  | ++ (20%-49% = ++)
13 | 37 (EAFSRASL; listed as Homo sapiens) [compound 37] | ++ (20% = ++) |  |  | ++ (20%-49% = ++)
14 | 38 (EVYQKIIL; listed as Homo sapiens) [compound 38] | +++ (50% = +++) |  |  | ++++ (>=70% = ++++)
15 | 40 (ESMLKTTL; listed as Homo sapiens) [compound 40] | ++ (20% = ++) |  |  | + (<20% = +)
16 | 41 (RGALRTLSL; listed as Homo sapiens) [compound 41] | ++ (20% = ++) |  |  | + (<20% = +)
17 | 42 (VLRRKTLL; listed as Homo sapiens) [compound 42] | ++ (20% = ++) |  |  | + (<20% = +)
18 | 45 (RLKVALSTL; listed as Homo sapiens) [compound 45] | +++ (50% = +++) |  |  | + (<20% = +)
19 | 47 (HSRVKLAQL; listed as Homo sapiens) [compound 47] | ++ (20% = ++) |  |  | ++ (20%-49% = ++)
20 | 48 (ELALRQTV; listed as Homo sapiens) [compound 48] | ++ (20% = ++) |  |  | + (<20% = +)

The next lines start with results.

Row | Peptide exchange (HLA-B*08:01) | Peptide exchange (HLA-B*44:05) | Peptide exchange (HLA-A*02:01) | Substance | Wells positive [%] [1]
21 | +++ (50% = +++) |  |  | 49 (FLRVFTDSL; listed as Homo sapiens) [compound 49] | + (<20% = +)
22 | ++ (20% = ++) |  |  | 57 (MPLKHYLL; listed as Homo sapiens) [compound 57] | +++ (50%-69%= +++)
23 | ++ (20% = ++) |  |  | 58 (LPKKMKLL; listed as Homo sapiens) [compound 58] | ++ (20%-49% = ++)
24 | +++ (50% = +++) |  |  | 60 (MLHIKKAEV; listed as Homo sapiens) [compound 60] | + (<20% = +)
25 | ++ (20% = ++) |  |  | 62 (FMLAKEASL; listed as Homo sapiens) [compound 62] | + (<20% = +)
26 | ++ (20% = ++) |  |  | 63 (YVKRKTNVL; listed as Homo sapiens) [compound 63] | + (<20% = +)
27 | ++ (20% = ++) |  |  | 66 (DLKKTRVL; listed as Homo sapiens) [compound 66] | + (<20% = +)
28 | +++ (50% = +++) |  |  | 68 (DLKIPRYPV; listed as Homo sapiens) [compound 68] | +++ (50%-69%= +++)
29 | +++ (50% = +++) |  |  | 71 (HIRIKHTF; listed as Homo sapiens) [compound 71] | ++ (20%-49% = ++)
30 | +++ (50% = +++) |  |  | 74 (RLKLRYEGL; listed as Homo sapiens) [compound 74] | ++ (20%-49% = ++)
31 | +++ (50% = +++) |  |  | 75 (YARLKNVLL; listed as Homo sapiens) [compound 75] | +++ (50%-69%= +++)
32 | +++ (50% = +++) |  |  | 76 (HPRLKVNLL; listed as Homo sapiens) [compound 76] | + (<20% = +)
33 | ++ (20% = ++) |  |  | 78 (DGHMKVFSL; listed as Homo sapiens) [compound 78] | ++ (20%-49% = ++)
34 | +++ (50% = +++) |  |  | 80 (EVYLRMYQL; listed as Homo sapiens) [compound 80] | +++ (50%-69%= +++)
35 | ++ (20% = ++) |  |  | 82 (SIRKRPML; listed as Homo sapiens) [compound 82] | + (<20% = +)
36 | +++ (50% = +++) |  |  | 83 (FVLLRSVDL; listed as Homo sapiens) [compound 83] | +++ (50%-69%= +++)
37 | ++ (20% = ++) |  |  | 86 (RPIHHPLVL; listed as Homo sapiens) [compound 86] | + (<20% = +)
38 | +++ (50% = +++) |  |  | 89 (VPYTKVQL; listed as Homo sapiens) [compound 89] | + (<20% = +)
39 |  | +++ (≥50% = +++) |  | 290 (EEFLTPKKL; listed as Homo sapiens) [compound 290] | 
40 |  |  | ++++ (≥75% = ++++) | 291 (YVYANHFTEA; listed as Homo sapiens) [compound 291] | 
